# Laboratory results taken from the supplement of paper PMC10567573.
# B1: FUT8 (parent)
# chain: YAHQPRTADEIPMEPGDIIGVAGN
# B2: PHTF1 (parent)
# chain: SRHLNSQVKKTTTRWCHIVRDSDS
# Variants of: B1
# Test: protein stability index of a GFP-peptide fusion (GPS, HEK-293T) (PSI 1-6); higher = more stable
# Settings: c terminus: a fixed tail appended
# 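Also: lentivirally expressed fusions sorted by FACS into six bins by GFP to DsRed ratio, PSI derived from sequencing read proportions per bin multiplied by bin number.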
row,Variant,protein stability index
1,P5H,3.85
2,P5A,4.23
3,P5F,3.11
4,P5G,3.96
5,P5E,4.62
6,P5C,3.72
7,P5D,4.93
8,P5I,3.4
9,P5K,3.61
10,Q4L,4.26
11,Q4E,4.61
12,Q4P,3.52
13,Q4F,2.77
14,Q4R,3.06
15,Q4M,3.73
16,Q4D,4.36
17,Q4A,4.07
18,Q4V,3.5
19,Q4T,3.72
20,Q4N,4.07
21,Q4W,1.98
22,Q4G,3.52

row,Variant,protein stability index
1,Q4K,2.85
2,Q4C,3.81
3,Q4Y,3.66
4,Q4S,3.8
5,Q4I,3.54
6,Q4H,3.92
7,Y1K,5
8,Y1W,4.52
9,Y1M,5.19
10,Y1N,4.75
11,Y1P,5.26
12,Y1Q,5.12
13,Y1I,5.16
14,Y1E,4.92
15,Y1F,3.6
16,Y1L,4.75
17,Y1C,3.93
18,Y1T,5.16
19,Y1R,4.84
20,Y1G,5.17
21,Y1A,5.22
22,Y1H,5.37

row,Variant,protein stability index
1,Y1V,4.28
2,Y1D,5.19
3,Y1S,4.88
4,H3A,4.56
5,H3S,4.36
6,H3T,4.25
7,H3E,4.87
8,H3I,4.2
9,H3L,4.77
10,H3D,4.78
11,H3K,4.34
12,H3G,3.36
13,H3P,2.92
14,H3R,3.44
15,H3V,4.46
16,H3Q,4.39
17,H3F,3.66
18,H3M,3.99
19,H3W,3.11
20,H3N,4.43
21,H3C,3.62
22,H3Y,3.45

row,Variant,protein stability index
1,A2C,4.03
2,A2T,4.49
3,A2D,5.06
4,A2Q,4.09
5,A2L,4.67
6,A2W,3.63
7,A2G,4.69
8,A2K,4.51
9,A2M,4.38
10,A2H,3.59
11,A2P,4.43
12,A2Y,4.3
13,A2N,4.92
14,A2F,4.45
15,A2E,5.05
16,A2R,4.56
17,A2S,4.53
18,A2I,3.15
19,A2V,2.39

# Variants of: B2
# Test: as above
# Settings: c terminus: a fixed tail appended
row,Variant,protein stability index
1,D23V,1.62
2,D23K,1.74
3,D23P,2.78
4,D23H,2.34
5,D23C,1.53
6,D23I,2.16
7,D23T,1.78
8,D23E,1.99
9,D23A,2.59
10,D23M,2.19
11,D23L,1.75
12,D23F,2.65
13,D23S,3.1
14,D23N,1.99
15,D23Q,1.84
16,D23G,1.56
17,D23R,2.8
18,D23Y,1.88
19,H17P,2.31
20,H17M,1.91
21,H17I,1.65
22,H17Y,2.42
23,H17K,2.59
24,H17F,2.75
25,H17N,2.43

row,Variant,protein stability index
1,H17L,1.7
2,H17R,2.58
3,H17W,2.62
4,H17E,1.29
5,H17Q,1.71
6,H17G,2.65
7,H17T,1.91
8,H17A,1.42
9,H17S,2.31
10,H17C,1.66
11,H17V,1.71
12,D21W,2.23
13,D21V,1.37
14,D21E,1.5
15,D21L,3.98
16,D21H,1.44
17,D21Y,1.69
18,D21A,2.5
19,D21G,1.7
20,D21M,1.82
21,D21R,1.55
22,D21T,2.79
23,D21K,2.39
24,D21P,2.57
25,D21S,2.14

row,Variant,protein stability index
1,T12V,1.94
2,T12R,2.09
3,T12P,2.71
4,T12K,1.82
5,T12D,2.91
6,T12F,1.66
7,T12G,1.64
8,T12Y,1.5
9,T12S,2.62
10,T12W,2.36
11,T12M,1.76
12,T12E,2.68
13,T12H,1.31
14,T12N,1.76
15,T12I,1.93
16,T12L,1.53
17,T12Q,2.12
18,T12A,2.1
19,T12C,2.19
20,S22Y,1.94
21,S22N,1.48
22,S22F,1.86
23,S22I,1.45
24,S22T,1.94
25,S22Q,2.65

row,Variant,protein stability index
1,S22K,2.84
2,S22C,1.73
3,S22M,2.15
4,S22A,1.82
5,S22W,2.08
6,S22P,1.77
7,S22D,1.72
8,S22L,1.78
9,S22E,1.87
10,S24F,2.04
11,S24P,2.01
12,S24R,1.37
13,S24D,2.75
14,S24E,1.9
15,S24Y,1.53
16,S24V,1.88
17,S24H,2.02
18,S24L,1.75
19,S24K,1.92
20,S24N,2.66
21,S24I,1.36
22,S24Q,2.02
23,S24G,2.13
24,S24M,2.21
25,S24T,2.99

row,Variant,protein stability index
1,S24W,1.79
2,S24C,2
3,T13N,1.91
4,T13K,1.76
5,T13D,2.76
6,T13W,1.82
7,T13M,2.1
8,T13G,2.75
9,T13Y,1.72
10,T13F,1.81
11,T13P,1.8
12,T13E,2.94
13,T13S,2.05
14,T13I,1.41
15,T13R,2.14
16,T13A,2.31
17,T13C,2.73
18,T13V,3.04
19,T13H,2.02
20,R20C,1.39
21,R20N,1.45
22,R20A,2.31
23,R20V,3.11
24,R20M,1.69
25,R20P,2.3

row,Variant,protein stability index
1,R20G,1.76
2,R20F,2.37
3,R20E,2.75
4,R20Q,2.09
5,R20T,2.61
6,R20I,1.18
7,R20K,1.25
8,R20W,1.57
9,R20L,2.17
10,R20H,2.29
11,R20Y,2.4
12,R20D,2.27
13,T11F,1.94
14,T11R,2.12
15,T11D,2.97
16,T11K,2.16
17,T11G,2.48
18,T11C,3.08
19,T11L,1.58
20,T11H,2.95
21,T11Y,2.41
22,T11E,2.11
23,T11I,1.67
24,T11N,1.79
25,T11P,2

row,Variant,protein stability index
1,T11Q,2.43
2,T11W,2.02
3,T11M,2.39
4,T11A,3.08
5,T11V,1.13
6,T11S,1.83
7,V19W,1.62
8,V19Q,2.81
9,V19F,1.55
10,V19I,1.75
11,V19A,2.8
12,V19H,1.66
13,V19M,2.94
14,V19C,2.19
15,V19N,2.55
16,V19S,2.75
17,V19P,2.42
18,V19L,2.35
19,V19K,2.3
20,V19T,3.13
21,V19G,2.4
22,V19E,3.71
23,V19Y,2.44
24,V19R,2.2
25,V19D,3.23

row,Variant,protein stability index
1,R14E,3.35
2,R14G,2.57
3,R14T,1.71
4,R14W,1.65
5,R14S,1.91
6,R14D,3
7,R14M,1.6
8,R14Q,2.67
9,R14K,2.3
10,R14Y,2.05
11,R14N,2.94
12,R14A,3.02
13,R14V,3.08
14,R14C,1.87
15,R14P,2
16,R14I,1.94
17,R14L,2.14
18,R14H,2.17
19,R14F,2.04
20,C16K,2.99
21,C16F,2.07
22,C16D,3.34
23,C16H,3.28
24,C16Y,2.56
25,C16Q,2.3

row,Variant,protein stability index
1,C16N,3.65
2,C16W,2.27
3,C16L,2.79
4,C16G,3.53
5,C16I,1.84
6,C16T,2.01
7,C16E,2.34
8,C16S,2.14
9,C16P,2.57
10,C16A,1.3
11,C16R,2.86
12,I18M,2.34
13,I18Y,1.74
14,I18D,3.92
15,I18K,2.77
16,I18R,3.06
17,I18E,3.1
18,I18N,3.3
19,I18S,3.95
20,I18C,2.13
21,I18Q,3.09
22,I18G,3.15
23,I18P,3.35
24,I18V,1.73
25,I18F,2.82

row,Variant,protein stability index
1,I18L,3.42
2,I18W,2.15
3,I18H,2.52
4,I18T,2.17
5,I18A,2.43
6,W15S,3.84
7,W15N,3.56
8,W15H,3.53
9,W15R,3.94
10,W15L,2.77
11,W15C,2.74
12,W15E,4.88
13,W15Q,4.35
14,W15M,3.22
15,W15G,3.24
16,W15F,3.71
17,W15P,3.86
18,W15Y,3.36
19,W15I,3.36
20,W15A,2.37
21,W15V,3.06
22,W15T,3.87
23,W15D,4.57
24,W15K,3.78
